Measured values taken from the supplement of paper PMC7877785.
± gives the uncertainty stated by the source.

Test: self-splicing fitness, log relative to wild type (ln ratio); higher = more splicing; Tetrahymena group I intron in knt gene, E. coli kanamycin selection, DiMSum; sequences stand for … in CUCUCU…GGAGGGAAAAGUUAUCAGGCAUGCACCUGGUAGCUAGUCUUUAAACCAAUAGAUUGCAUCGGUUUAAAAGGCAAGACCGUCAAAUUGCGGGAAAGGGGUCAACAGCCGUUCAGUACCAAGUCUCAGGGGAAACUUUGAGAUGGCCUUGCAAAGGGUAUGGUAAUAAGCUGACGGACAUGGUCCUAACCACGCAGCCAAGUCCUAAGUCAACAGAUCUUCUGUUGAUAUGGAUGCAGUUCACAGACUAAAUGUCGGUCGGGGAAGAUGUAUUCUUCUCAUAAGAUAUAGUCGGACCUCUCCUUAAUGGGAGCUAGCGGAUGAAGUGAUGCAACACUGGAGCCGCUGGGAACUAAUUUGUAUGCGAAAGUAUAUUGAUUAGUUUUGGAGUACUCGUGGUCG
Outline: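 Six replicate transformations of E. coli BL21(DE3) with a pET-22b(+) library were grown overnight at 37°C or 30°C. The library randomised all eight P1ex-region intron nucleotides, the intron lying in the knt kanamycin-resistance gene, and plates were LB agar with or without 25 μg/mL kanamycin plus 100 μg/mL carbenicillin, 50 μM IPTG and 0.2% rhamnose. Pooled colonies were amplicon-sequenced on an Illumina HiSeq 2500, and fitness is the DiMSum error-weighted combination of wild-type-normalised replicate fold changes, kanamycin versus none.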

Sequence	self-splicing fitness (ln) (30 °C)	self-splicing fitness (ln) (37 °C)
CAUUAGCAAUAUUACGUGAG	-1.55 ± 0.14	0.776 ± 0.12
AUAUAGCAAUAUUACGCUGG	-2.06 ± 0.2	-1.51 ± 0.32
GAUGAGCAAUAUUACGGCAC	-0.478 ± 0.098	-0.366 ± 0.16
UAGAAGCAAUAUUACGCCUU	-1.03 ± 0.22	-1.38 ± 0.26
UUGCAGCAAUAUUACGGCCC	-1.83 ± 0.31	-0.271 ± 0.47
CAAGAGCAAUAUUACGAUUA	-1.92 ± 0.19	-0.907 ± 0.21
CAUUAGCAAUAUUACGCAUC	-2.71 ± 0.21	-1.6 ± 0.27
UAAUAGCAAUAUUACGUAAA	-3.19 ± 0.2	-1.88 ± 0.19
UCGCAGCAAUAUUACGAUUA	-1.06 ± 0.11	-0.805 ± 0.11
UUGUAGCAAUAUUACGAGCA	-1.49 ± 0.24	-0.799 ± 0.2
CGGAAGCAAUAUUACGCUUA	–	-2.15 ± 0.32
UUAUAGCAAUAUUACGUUGA	-2.54 ± 0.42	-1.58 ± 0.27
UACGAGCAAUAUUACGUACC	–	-1.17 ± 0.36
UAUAAGCAAUAUUACGAGGA	-2.44 ± 0.42	–
ACCAAGCAAUAUUACGAAAU	-2.89 ± 0.12	-2.08 ± 0.15
AUCCAGCAAUAUUACGCAAU	-1.38 ± 0.064	-0.773 ± 0.089
GUUCAGCAAUAUUACGCUGU	-3.2 ± 0.17	-1.65 ± 0.12
CCACAGCAAUAUUACGUUCA	-3.27 ± 0.16	-2.5 ± 0.19
CACGAGCAAUAUUACGGUCG	-1.72 ± 0.14	-0.457 ± 0.14
UUUCAGCAAUAUUACGCAUC	-2.79 ± 0.14	-0.623 ± 0.11
UGAAAGCAAUAUUACGAUAU	-2.68 ± 0.18	-1.21 ± 0.13
GGAUAGCAAUAUUACGGAGC	-3.05 ± 0.26	-2.51 ± 0.25

Sequence	self-splicing fitness (ln) (30 °C)	self-splicing fitness (ln) (37 °C)
CUCCAGCAAUAUUACGAGUA	-2.58 ± 0.16	-2.14 ± 0.14
UUGCAGCAAUAUUACGCGAG	-3.18 ± 0.12	-1.73 ± 0.12
GGCAAGCAAUAUUACGCCAG	–	-2.52 ± 0.41
AAAUAGCAAUAUUACGGACA	-1.08 ± 0.12	-0.512 ± 0.13
GUCGAGCAAUAUUACGCAUU	-2.45 ± 0.27	-0.95 ± 0.25
UCCUAGCAAUAUUACGGAUA	-2.52 ± 0.2	-0.547 ± 0.13
CAAAAGCAAUAUUACGAAAA	-2.35 ± 0.18	-2.11 ± 0.2
CACCAGCAAUAUUACGCUAU	-4.03 ± 0.16	-2.21 ± 0.13
ACUCAGCAAUAUUACGCAUG	-2.09 ± 0.15	-2.23 ± 0.15
AGUAAGCAAUAUUACGUCGU	-2.12 ± 0.13	-0.496 ± 0.12
UCAUAGCAAUAUUACGACGU	-1.76 ± 0.12	-1.37 ± 0.15
UAACAGCAAUAUUACGUAUA	-1.4 ± 0.062	-0.86 ± 0.069
AGAUAGCAAUAUUACGGGGC	-2.65 ± 0.2	-3.29 ± 0.37
UCUGAGCAAUAUUACGAGAG	-4.12 ± 0.26	-2.69 ± 0.45
CUUCAGCAAUAUUACGAGGA	-2.73 ± 0.26	-1.64 ± 0.24
GCGCAGCAAUAUUACGAAUA	-2.09 ± 0.2	-1.02 ± 0.14
GACAAGCAAUAUUACGACAA	-0.668 ± 0.11	-0.951 ± 0.1
CAUCAGCAAUAUUACGCUGA	-3.2 ± 0.22	-2.24 ± 0.27
UGGAAGCAAUAUUACGUGUU	-3.39 ± 0.16	-2.7 ± 0.17
GUACAGCAAUAUUACGAGCA	-1.59 ± 0.13	-1.12 ± 0.13
CGGAAGCAAUAUUACGGAAA	-1.12 ± 0.21	-2.23 ± 0.29
